Assay results: patent US20210198328A1, “MODULATED CAS-INHIBITORS” (Universität Heidelberg, priority 2017, published 2021)

System: dCas9-3xRFP
Test: Telomere labeling, automated image analysis
Type: cell-based, Streptococcus pyogenes
Settings: U2OS, light or dark 20 h
Description: U2OS cells were seeded into 4-compartment CELLview cell culture dishes (Greiner Bio-One) at a density of 30,000 cells per compartment. The next day, cells were transfected with vectors encoding (i) a CMV promoter-driven dCas9-3xRFP-P2A-CASANOVA and a U6 promoter-driven telomere-targeting gRNA, (ii) a telomere-targeting gRNA and GFP transfection marker, and (iii) a CMV promoter-driven CASANOVA in a ratio of 20:6:3 using 362.5 ng total DNA and 1.5 μl JetPrime for transfection (per compartment).
In the positive control samples, vector i was replaced by a vector encoding dCas9-3xRFP (without the P2A-CASANOVA) and a U6 promoter-driven telomere-targeting RNA, and vector iii was replaced by an irrelevant DNA. […] SlowFade™ Diamond Antifade Mountant with DAPI (Invitrogen) was added and imaging was performed using the aforementioned microscopy setup and the following excitation/detection settings: 405 nm (1% laser powerV410-490 nm for DAPI, 488 nm (2% laser power)/493-578 nm for GFP, or 552 nm (1% laser power)/578-789 nm for RFP. RFP fluorescent spots (i.e., labeled telomeres) were then detected and quantified using a fully automated image analysis pipeline as follows. The ImageJ2 (beta) Integration in KNIME Version 3.5.2 (KNIME AG) was used to create an automated image processing and analysis pipeline employed for quantification of labeled telomeres. […]

B1: AcrIIA4: anti-CRISPR polypeptide of a Listeria monocytogenes prophage, SEQ ID NO: 1 (protein)
chain: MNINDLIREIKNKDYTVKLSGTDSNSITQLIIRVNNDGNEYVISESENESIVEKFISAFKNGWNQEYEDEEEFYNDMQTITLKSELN
modifications: Listeria monocytogenes
  telomere labeling, light-independent: weak
